Columns and labels:
[1] = target: T1, human mature TGFβ2 (PeproTech) (Homo sapiens, UniProt P61812); experiment: cell-based or functional assay
[2] = target: T2, human mature TGFβ3 (Homo sapiens, UniProt P10600); experiment: cell-based or functional assay
[3] = target: T3, human mature TGFβ1 (Homo sapiens, UniProt P01137); experiment: SPR; Biacore T200; antibody captured on a Protein A sensor chip (about 90 RU); mature TGFβ isoform injected, five-fold dilutions 0.008 nM to 5 nM; HBS-EP pH 7.4, 150 mM NaCl; 37 °C; 100 μl/min; 3 min association, 60 min dissociation; one-to-one Langmuir model, global fit; conditions: both partners purified
T3 construct: Transforming Growth Factor-beta 1, human, mature form (cut from the precursor); also called TGFb1; source: bought: PeproTech
T3 sequence (P01137 279-390): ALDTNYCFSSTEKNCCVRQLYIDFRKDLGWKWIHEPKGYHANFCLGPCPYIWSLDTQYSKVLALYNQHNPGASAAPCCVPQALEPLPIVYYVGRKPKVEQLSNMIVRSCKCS

[4] = target: T1, human mature TGFβ2 (PeproTech); experiment: as above; conditions: both partners purified
[5] = target: T2, human mature TGFβ3; experiment: as above; conditions: both partners purified

T2 sequence (P10600 301-412): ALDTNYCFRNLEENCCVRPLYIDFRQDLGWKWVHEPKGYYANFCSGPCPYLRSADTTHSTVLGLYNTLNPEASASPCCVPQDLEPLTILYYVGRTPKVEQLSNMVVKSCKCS
T1 sequence (P61812 303-414): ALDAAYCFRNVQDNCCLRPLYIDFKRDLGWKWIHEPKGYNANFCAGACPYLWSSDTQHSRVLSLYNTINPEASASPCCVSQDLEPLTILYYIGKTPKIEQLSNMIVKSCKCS

TGFβ inhibition by HEK-Blue cells (IC50: nM), TGFb2; Blocking: Complete [1] [nM]	TGFβ inhibition by HEK-Blue cells (IC50: nM), TGFb3; Blocking: Complete [2] [nM]	Kd [3] [pM]	binding result [3]	Kd [4] [pM]	Kd [5] [pM]	TGFβ inhibition by HEK-Blue cells (IC50: nM), TGFb2; Blocking: Incomplete [1] [nM]	TGFβ inhibition by HEK-Blue cells (IC50: nM), TGFb3; Blocking: Incomplete [2] [nM]	Binder
0.7	0.1	> 5000	no binding (tested: 5 nM)	2.2	0.6	–	–	h4A11.v2.1 (antibody, V domains shown, as the VH of m7 (h4A11.v2) with the stated change; numbers count on: Kabat numbering of the heavy chain; as the VL of m7 (h4A11.v2); human IgG1; also called v2.1_R19S; source: Expi293F, transient, purified (Protein A, SEC)) VH: EQQLVESGGGLVQPGGSLSLSCAVSGFSLSSYTVNWVRQAPGKGLEWIGYISYGGSAYYASWANGRFTISKDSAKNSVYLQMNSLRAEDTAVYFCARHMQVGGAPTGSMAAFDPWGPGTLVTVSS VL: DAQLTQSPSSLSASVGDRVTITCQSSQSVYNNNYLSWFQQKPGKPPKLLIYGASTLTSGVPSRFSGSGSGTDFTLTISSLQPEDFATYYCAGGYSGSSDKYAFGGGTKVEIK
2.2	0.2	> 5000	no binding (tested: 5 nM)	1.4	0.6	–	–	h4A11.v2.4 (antibody, V domains shown, as the VH of m7 (h4A11.v2) with the stated changes; numbers count on: Kabat numbering of the heavy chain; as the VL of m7 (h4A11.v2); human IgG1; also called v2.4_ R19S, Y79S; source: Expi293F, transient, purified (Protein A, SEC)) VH: EQQLVESGGGLVQPGGSLSLSCAVSGFSLSSYTVNWVRQAPGKGLEWIGYISYGGSAYYASWANGRFTISKDSAKNSVSLQMNSLRAEDTAVYFCARHMQVGGAPTGSMAAFDPWGPGTLVTVSS VL: DAQLTQSPSSLSASVGDRVTITCQSSQSVYNNNYLSWFQQKPGKPPKLLIYGASTLTSGVPSRFSGSGSGTDFTLTISSLQPEDFATYYCAGGYSGSSDKYAFGGGTKVEIK
1.7	0.7	> 5000	no binding (tested: 5 nM)	3.4	5.5	–	–	h4A11.v2.3 (antibody, V domains shown, as the VH of m7 (h4A11.v2) with the stated change; numbers count on: Kabat numbering of the heavy chain; as the VL of m7 (h4A11.v2); human IgG1; also called v2.3_Q81A; source: Expi293F, transient, purified (Protein A, SEC)) VH: EQQLVESGGGLVQPGGSLRLSCAVSGFSLSSYTVNWVRQAPGKGLEWIGYISYGGSAYYASWANGRFTISKDSAKNSVYLAMNSLRAEDTAVYFCARHMQVGGAPTGSMAAFDPWGPGTLVTVSS VL: DAQLTQSPSSLSASVGDRVTITCQSSQSVYNNNYLSWFQQKPGKPPKLLIYGASTLTSGVPSRFSGSGSGTDFTLTISSLQPEDFATYYCAGGYSGSSDKYAFGGGTKVEIK
0.7	0.1	> 5000	no binding (tested: 5 nM)	1.7	0.6	–	–	h4A11.v2.5 (antibody, V domains shown, as the VH of m7 (h4A11.v2) with the stated changes; numbers count on: Kabat numbering of the heavy chain; as the VL of m7 (h4A11.v2); human IgG1; also called v2.5_ R19S, Q81S; source: Expi293F, transient, purified (Protein A, SEC)) VH: EQQLVESGGGLVQPGGSLSLSCAVSGFSLSSYTVNWVRQAPGKGLEWIGYISYGGSAYYASWANGRFTISKDSAKNSVYLSMNSLRAEDTAVYFCARHMQVGGAPTGSMAAFDPWGPGTLVTVSS VL: DAQLTQSPSSLSASVGDRVTITCQSSQSVYNNNYLSWFQQKPGKPPKLLIYGASTLTSGVPSRFSGSGSGTDFTLTISSLQPEDFATYYCAGGYSGSSDKYAFGGGTKVEIK
2.2	0.4	> 5000	no binding (tested: 5 nM)	4.5	6	–	–	h4A11.v2.2 (antibody, V domains shown, as the VH of m7 (h4A11.v2) with the stated change; numbers count on: Kabat numbering of the heavy chain; as the VL of m7 (h4A11.v2); human IgG1; also called v2.2_Q81N; source: Expi293F, transient, purified (Protein A, SEC)) VH: EQQLVESGGGLVQPGGSLRLSCAVSGFSLSSYTVNWVRQAPGKGLEWIGYISYGGSAYYASWANGRFTISKDSAKNSVYLNMNSLRAEDTAVYFCARHMQVGGAPTGSMAAFDPWGPGTLVTVSS VL: DAQLTQSPSSLSASVGDRVTITCQSSQSVYNNNYLSWFQQKPGKPPKLLIYGASTLTSGVPSRFSGSGSGTDFTLTISSLQPEDFATYYCAGGYSGSSDKYAFGGGTKVEIK
1.7	0.3	> 5000	no binding (tested: 5 nM)	1.9	0.5	–	–	h4A11.v2.6 (antibody, V domains shown, as the VH of m7 (h4A11.v2) with the stated changes; numbers count on: Kabat numbering of the heavy chain; as the VL of m7 (h4A11.v2); human IgG1; also called v2.6_ R19S, Y79S, Q81S; source: Expi293F, transient, purified (Protein A, SEC)) VH: EQQLVESGGGLVQPGGSLSLSCAVSGFSLSSYTVNWVRQAPGKGLEWIGYISYGGSAYYASWANGRFTISKDSAKNSVSLSMNSLRAEDTAVYFCARHMQVGGAPTGSMAAFDPWGPGTLVTVSS VL: DAQLTQSPSSLSASVGDRVTITCQSSQSVYNNNYLSWFQQKPGKPPKLLIYGASTLTSGVPSRFSGSGSGTDFTLTISSLQPEDFATYYCAGGYSGSSDKYAFGGGTKVEIK
–	–	> 5000	no binding (tested: 5 nM)	10.7	40.5	> 667	> 667	h4A11.v7.1 (antibody, V domains shown, as the VH of m12 (h4A11.v7); numbers count on: Kabat numbering of the heavy chain; as the VL of m12 (h4A11.v7); human IgG1; also called v7.1_S19R, S79Y; source: Expi293F, transient, purified (Protein A, SEC)) VH: EQQLQESGPGLVKPSETLRLTCTVTGFSLSSYTVNWVRQPAGKGLEWIGYISYGGSAYYASWANGRFTISKDSSKNQVYLKLSSVTAADTAVYFCARHMQVGGAPTGSMAAFDPWGPGTLVTVSS VL: EAVLTQSPGTLSLSPGERATLSCQSSQSVYNNNYLSWFQQKPGQPPRLLIYGASTLTSGVPDRFSGSGSGTDFTLTISRLEPEDFAVYYCAGGYSGSSDKYAFGGGTKVEIK
–	–	> 5000	no binding (tested: 5 nM)	5.7	8	> 667	> 667	h4A11.v7.3 (antibody, V domains shown, as the VH of m12 (h4A11.v7); numbers count on: Kabat numbering of the heavy chain; as the VL of m12 (h4A11.v7); human IgG1; also called v7.3_S19R, S79Y, K81Q; source: Expi293F, transient, purified (Protein A, SEC)) VH: EQQLQESGPGLVKPSETLRLTCTVTGFSLSSYTVNWVRQPAGKGLEWIGYISYGGSAYYASWANGRFTISKDSSKNQVYLQLSSVTAADTAVYFCARHMQVGGAPTGSMAAFDPWGPGTLVTVSS VL: EAVLTQSPGTLSLSPGERATLSCQSSQSVYNNNYLSWFQQKPGQPPRLLIYGASTLTSGVPDRFSGSGSGTDFTLTISRLEPEDFAVYYCAGGYSGSSDKYAFGGGTKVEIK
–	–	> 5000	no binding (tested: 5 nM)	5.6	7.2	> 667	> 667	h4A11.v7.5 (antibody, V domains shown, as the VH of m12 (h4A11.v7); numbers count on: Kabat numbering of the heavy chain; as the VL of m12 (h4A11.v7); human IgG1; also called v7.5_S19R, S79W, K81Q; source: Expi293F, transient, purified (Protein A, SEC)) VH: EQQLQESGPGLVKPSETLRLTCTVTGFSLSSYTVNWVRQPAGKGLEWIGYISYGGSAYYASWANGRFTISKDSSKNQVWLQLSSVTAADTAVYFCARHMQVGGAPTGSMAAFDPWGPGTLVTVSS VL: EAVLTQSPGTLSLSPGERATLSCQSSQSVYNNNYLSWFQQKPGQPPRLLIYGASTLTSGVPDRFSGSGSGTDFTLTISRLEPEDFAVYYCAGGYSGSSDKYAFGGGTKVEIK
–	–	> 5000	no binding (tested: 5 nM)	11.2	18.8	> 667	> 667	h4A11.v7.4 (antibody, V domains shown, as the VH of m12 (h4A11.v7); numbers count on: Kabat numbering of the heavy chain; as the VL of m12 (h4A11.v7); human IgG1; also called v7.4_S19R, S79Y, K81R; source: Expi293F, transient, purified (Protein A, SEC)) VH: EQQLQESGPGLVKPSETLRLTCTVTGFSLSSYTVNWVRQPAGKGLEWIGYISYGGSAYYASWANGRFTISKDSSKNQVYLRLSSVTAADTAVYFCARHMQVGGAPTGSMAAFDPWGPGTLVTVSS VL: EAVLTQSPGTLSLSPGERATLSCQSSQSVYNNNYLSWFQQKPGQPPRLLIYGASTLTSGVPDRFSGSGSGTDFTLTISRLEPEDFAVYYCAGGYSGSSDKYAFGGGTKVEIK
–	–	> 5000	no binding (tested: 5 nM)	9.7	15.6	> 667	> 667	h4A11.v7.6 (antibody, V domains shown, as the VH of m12 (h4A11.v7); numbers count on: Kabat numbering of the heavy chain; as the VL of m12 (h4A11.v7); human IgG1; also called v7.6_S19R, S79W, K81R; source: Expi293F, transient, purified (Protein A, SEC)) VH: EQQLQESGPGLVKPSETLRLTCTVTGFSLSSYTVNWVRQPAGKGLEWIGYISYGGSAYYASWANGRFTISKDSSKNQVWLRLSSVTAADTAVYFCARHMQVGGAPTGSMAAFDPWGPGTLVTVSS VL: EAVLTQSPGTLSLSPGERATLSCQSSQSVYNNNYLSWFQQKPGQPPRLLIYGASTLTSGVPDRFSGSGSGTDFTLTISRLEPEDFAVYYCAGGYSGSSDKYAFGGGTKVEIK
–	–	> 5000	no binding (tested: 5 nM)	9.6	22.8	> 667	> 667	h4A11.v7.2 (antibody, V domains shown, as the VH of m12 (h4A11.v7); numbers count on: Kabat numbering of the heavy chain; as the VL of m12 (h4A11.v7); human IgG1; also called v7.2_S19R, S79W; source: Expi293F, transient, purified (Protein A, SEC)) VH: EQQLQESGPGLVKPSETLRLTCTVTGFSLSSYTVNWVRQPAGKGLEWIGYISYGGSAYYASWANGRFTISKDSSKNQVWLKLSSVTAADTAVYFCARHMQVGGAPTGSMAAFDPWGPGTLVTVSS VL: EAVLTQSPGTLSLSPGERATLSCQSSQSVYNNNYLSWFQQKPGQPPRLLIYGASTLTSGVPDRFSGSGSGTDFTLTISRLEPEDFAVYYCAGGYSGSSDKYAFGGGTKVEIK

— PMC8595303, “Dramatic activation of an antibody by a single amino acid change in framework” (Scientific Reports, 2021)
